Reference: paper PMC4920195, “Non-Smc element 5 (Nse5) of the Smc5/6 complex interacts with SUMO pathway components” (Biology Open, 2016)
Substitutions are numbered along the chain they refer to. One block for each molecule: values may come before it.

How the values were obtained:
Experiment in all cases: two-hybrid; LexA bait and B42 activating domain prey, galactose-induced; liquid culture, quantitative beta-galactosidase activity of permeabilized cells with reporter pSH18034, wild-type cells (JC470)
[1] = target: Nse5-ts2-LexA (S. cerevisiae) (UniProt Q03718)
Nse5-Y111H-LexA = target: T1, Nse5-Y111H-LexA (S. cerevisiae, UniProt Q03718 1-556, Y111H); settings: partners not purified
T1 construct: Nse5 of Saccharomyces cerevisiae, point mutant; also called J-132; source: yeast two-hybrid fusion, galactose-inducible promoter, in S. cerevisiae
T1 sequence (looked up): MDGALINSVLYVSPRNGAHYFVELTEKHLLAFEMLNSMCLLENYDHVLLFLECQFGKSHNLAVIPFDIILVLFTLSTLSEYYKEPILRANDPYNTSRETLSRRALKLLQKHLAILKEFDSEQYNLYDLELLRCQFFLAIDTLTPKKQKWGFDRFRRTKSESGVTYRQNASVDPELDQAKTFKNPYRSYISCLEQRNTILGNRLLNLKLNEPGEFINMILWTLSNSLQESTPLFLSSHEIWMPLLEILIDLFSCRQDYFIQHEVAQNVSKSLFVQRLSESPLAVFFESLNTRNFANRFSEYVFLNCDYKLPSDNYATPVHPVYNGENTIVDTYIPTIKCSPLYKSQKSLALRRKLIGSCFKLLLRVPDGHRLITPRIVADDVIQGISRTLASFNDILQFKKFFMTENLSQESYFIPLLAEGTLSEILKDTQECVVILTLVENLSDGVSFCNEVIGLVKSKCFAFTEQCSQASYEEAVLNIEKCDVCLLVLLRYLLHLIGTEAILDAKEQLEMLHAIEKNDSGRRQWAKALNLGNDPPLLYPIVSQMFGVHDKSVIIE

Nse5-Y123H-LexA = target: T2, Nse5-Y123H-LexA (S. cerevisiae, UniProt Q03718 1-556, Y123H); settings: partners not purified
T2 construct: Nse5 of Saccharomyces cerevisiae, point mutant; also called J-131; source: yeast two-hybrid fusion, galactose-inducible promoter, in S. cerevisiae
T2 sequence (looked up): T1 sequence (looked up) with H111Y, Y123H

Nse5-H319Y-LexA = target: T3, Nse5-H319Y-LexA (S. cerevisiae, UniProt Q03718 1-556, H319Y); settings: partners not purified
T3 construct: Nse5 of Saccharomyces cerevisiae, point mutant; also called J-120; source: yeast two-hybrid fusion, galactose-inducible promoter, in S. cerevisiae
T3 sequence (looked up): T1 sequence (looked up) with H111Y, H319Y

Nse5-LexA (wild type) = target: T4, Nse5-LexA (wild type) (S. cerevisiae, UniProt Q03718 1-556); settings: partners not purified
T4 construct: Nse5 of Saccharomyces cerevisiae, NSE5 gene cloned into a pEG202-derived bait plasmid; also called Non-Smc element 5; J-038; source: yeast two-hybrid fusion, galactose-inducible promoter, in S. cerevisiae
T4 sequence (looked up): T1 sequence (looked up) with H111Y

two-hybrid signal as percent of wild-type Nse5 [1]: 63%
Molecule: Nse6-AD (natural protein)

two-hybrid signal as percent of wild-type Nse5 (Nse5-Y111H-LexA): 18%
two-hybrid signal as percent of wild-type Nse5 (Nse5-Y123H-LexA): 75%
two-hybrid signal as percent of wild-type Nse5 (Nse5-H319Y-LexA): 40%
B1: Smt3-AD (natural protein, S. cerevisiae, UniProt Q12306 1-101, looked up)
chain: MSDSEVNQEAKPEVKPEVKPETHINLKVSDGSSEIFFKIKKTTPLRRLMEAFAKRQGKEMDSLRFLYDGIRIQADQTPEDLDMEDNDIIEAHREQIGGATY
notes: Smt3 (SUMO) of Saccharomyces cerevisiae, SMT3 cloned into a pJG4-6-derived prey vector; also called SUMO; J-043; source: yeast two-hybrid fusion, galactose-inducible promoter, in S. cerevisiae

two-hybrid signal as fold of the interactions with Siz1 and Siz2 (Nse5-LexA (wild type)): ~5 fold
B2: Ubc9-AD (wild type) (enzyme, S. cerevisiae, UniProt P50623 1-157, looked up)
chain: MSSLCLQRLQEERKKWRKDHPFGFYAKPVKKADGSMDLQKWEAGIPGKEGTNWAGGVYPITVEYPNEYPSKPPKVKFPAGFYHPNVYPSGTICLSILNEDQDWRPAITLKQIVLGVQDLLDSPNPNSPAQEPAWRSFSRNKAEYDKKVLLQAKQYSK
notes: Ubc9 of Saccharomyces cerevisiae, UBC9 cloned into a pJG4-6-derived prey vector; also called E2 conjugating enzyme; J-042; source: yeast two-hybrid fusion, galactose-inducible promoter, in S. cerevisiae
